Test results as given in US10869937B2, “Polymer derivatives, and novel polymer derivative imaging probe using same” (Nippon Kayaku Kabushiki Kaisha, priority 2016, dated 2020).

Assay: Average particle size measurement with single nanoparticle size analyzer IG-1000 (induced diffraction grating method)
Type: physicochemical
Conditions: 1 mg/mL in ultrapure water, 25° C.
Method: The particle size (average particle size) of the nanoparticles according to the invention is measured by, for example, an induced diffraction grating method. An induced diffraction grating method is a method of: (1) irradiating a 1 or 2 mg/mL aqueous solution of the block copolymer of the present invention or a composition including the block copolymer with laser light, thereby forming diffraction gratings by dielectrophoresis; (2) stopping an external force that causes dielectrophoresis, measuring the annihilation rate of the diffraction gratings caused by diffusion, and (3) applying the annihilation rate to the Stokes-Einstein relational equation to obtain the particle size. For example, the particle size may be measured with a single nanoparticle size measuring apparatus, IG-1000, manufactured by Shimadzu Corp.
Measurement of the average particle sizes of the block copolymers of Synthesis Examples and Examples and compositions including those block copolymers was carried out using a single nanoparticle size analyzer, IG-1000, manufactured by Shimadzu Corp. (measurement temperature: 25° C., light intensity at t=0: 100 to 200). Regarding the sample for measuring the average particle size, a solution produced using ultrapure water to a block copolymer concentration of 1 mg/mL or 2 mg/mL and filtered through a 0.45 μm membrane filter, was used.

Q: With “7-ethyl-10-hydroxycamptothecin (EHC)-Bonded and ALEXA FLUOR (registered trademark) 594 Cadaverin (Alexa)-Bonded Product of Polyethylene Glycol (2 kDa)-Polyglutamic Acid (8.3 Polymerization Units) Block Copolymer [Example 3]” as the substance, how does the average particle size read?
A: 10 nm
